From patent publication US7314716B2, “Gustducin γ subunit materials and methods” (Mount Sinai School of Medicine, priority 1999, dated 2008)

Key:
[1] = target: T1, gustducin α subunit (Rattus norvegicus, UniProt P29348); assay: Trypsin protection assay of G protein α and γ subunit interaction; assay type: binding; conditions: in vitro translated γ and α subunits mixed 3:1, without β subunit
T1 construct: made in house; host or cells: cell-free in vitro transcription/translation (Promega TNT system)
T1 sequence (P29348 2-354 limits assumed): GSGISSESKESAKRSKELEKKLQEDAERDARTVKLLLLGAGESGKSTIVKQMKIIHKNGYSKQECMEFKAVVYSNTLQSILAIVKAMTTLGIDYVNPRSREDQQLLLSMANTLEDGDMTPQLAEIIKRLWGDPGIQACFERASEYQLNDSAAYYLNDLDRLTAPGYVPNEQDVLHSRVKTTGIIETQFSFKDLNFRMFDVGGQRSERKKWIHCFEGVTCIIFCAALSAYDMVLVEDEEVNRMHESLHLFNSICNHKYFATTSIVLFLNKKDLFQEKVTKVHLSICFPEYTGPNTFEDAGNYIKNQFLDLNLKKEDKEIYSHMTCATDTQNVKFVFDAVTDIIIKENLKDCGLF
Text: The interaction was confirmed using a trypsin protection assay that detects the direct interaction of G protein α and γ subunits. The assay is based on the fact that γ subunits, in the absence of β subunits, can interact directly with α subunits, and that this interaction apparently dictates which βγ dimer associates with which α subunit. See Rahmatullah & Robishaw, J. Biol. Chem., 269: 3574–3580 (1994).
To monitor G protein α and γ subunit interactions, gustducin γ and α subunit DNAs were transcribed and translated in vitro using the Promega TNT system, mixed in a 3:1 ratio, and incubated for 15 minutes at 30° C. in buffer G [15 mM Na-HEPES pH 8.0, 250 mM NaCl, 0.6 mM EDTA, 0.6 mM DTT, 5 mM MgCl2, 0.1 mM GDP and 0.3% polyoxyethylene 10-lauryl ether (LPX)]. The assay was initiated by adding Tosyl-L-phenylalanine chloromethyl ketone (TPCK) treated-trypsin (0.5 μg), incubated for 1 hour at 30° C., and terminated with 3 μg soybean trypsin inhibitor (SBTI) (15 min, at 30° C.). The samples were analyzed on 12% SDS-PAGE, gels were fixed, enhanced with En^3Hance (NEN), dried and exposed to X-ray film.
Other Gγ subunits were also tested in the assay.

[2] = target: T2, β1 subunit (Homo sapiens, UniProt P62873); assay: Trypsin assay of βγ dimer formation; assay type: binding; conditions: cotranslated in vitro with β1 subunit
T2 construct: made in house; host or cells: cell-free in vitro transcription/translation
T2 sequence (P62873 whole entry): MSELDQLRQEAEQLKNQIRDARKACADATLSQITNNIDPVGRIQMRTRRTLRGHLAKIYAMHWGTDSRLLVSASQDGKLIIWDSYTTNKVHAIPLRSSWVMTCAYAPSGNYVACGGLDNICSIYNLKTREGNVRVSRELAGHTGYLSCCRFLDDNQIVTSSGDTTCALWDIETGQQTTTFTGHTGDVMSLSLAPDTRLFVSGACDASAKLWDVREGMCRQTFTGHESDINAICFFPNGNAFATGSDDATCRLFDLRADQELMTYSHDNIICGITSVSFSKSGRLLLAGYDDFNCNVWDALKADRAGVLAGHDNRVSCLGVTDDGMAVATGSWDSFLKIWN
T2 sequence (Q9P2W3 whole entry partner): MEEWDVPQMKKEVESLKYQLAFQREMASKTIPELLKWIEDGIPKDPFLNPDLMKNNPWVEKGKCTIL
Method: To determine which β and gustducin γ subunit combinations were capable of forming dimers another trypsin assay was utilized. β monomers are cleaved at numerous sites by trypsin, whereas βγ dimers are cleaved at a single site, resulting in the appearance of a 26-kDa fragment of the β subunit. See Schmidt et al., J. Biol. Chem., 267: 13807–13810 (1992).
Plasmid DNAs (0.5 μg) encoding β1 subunit was transcribed and translated in vitro, in the presence or absence of plasmid DNA (0.5 μg) coding for the gustducin γ subunit. Aliquots (10 μl) of the cotranslated βγ mix or β subunit alone were digested by TPCK-treated trypsin (1 μg) in a final volume of 20 μl (with 50 mM Na-HEPES pH 8.0). After incubation for 1 hour at 30° C., the digestions were stopped by addition of 6 μg SBTI as described above. Protected fragments of β subunits were analyzed on 15% SDS-PAGE. Detection was as described above.
In the assay, β1 formed dimers with gustducin γ subunit that were protected from trypsin digestion.

Molecule	protection of gustducin α subunit from tryptic digestion [1]	dimer formation with β1, protected from trypsin digestion [2]
Gustducin γ subunit: γ subunit of the taste cell G protein gustducin, 67 amino acids, designated Gγ13 (protein, listed as Mus musculus, ends and bridges not checked, γ subunit of the taste cell G protein gustducin, 67 amino acids, designated Gγ13) MEEWDVPQMKKEVESLKYQLAFKREMSSKTIPELLKWIEDGIPKDPFLNPDLMKNNPWVEKAKCTIL	protected gustducin α subunit from tryptic digestion to a significant extent	formed dimers
Gγ1: G protein γ subunit which interacts with the rod transducin α subunit (protein) PVINIEDLTEKDKLKMEVDQLKKEVTLERMLVSKCCEEFRDYVEERSGEDPLVKGIPEDKNPFKELKGGC	appeared to interact with gustducin α subunit, albeit to a lesser extent	–
cone γ8 subunit: the cone transducin α subunit partner (protein, ends and bridges not checked, the cone transducin α subunit partner) MAQDLSEKDLLKMEVEQLKKEVKNTRIPISKAGKEIKEYVEAQAGNDPFLKGIPEDKNPFKEKGGCLIS	unable to protect	–
Gγ5: G protein γ5 subunit (protein) SGSSSVAAMKKVVQQLRLEAGLNRVKVSQAAADLKQFCLQNAQHDPLLTGVSSSTNPFRPQKVC	unable to protect	–
